The labels stand for the following.
B1: 19E10 VHH-Fc (Fc fusion)
chain: QVQLVESGGGLVQPGGSLRLSCVASGSTISINSMGWYRQAPGKAREMVATITNDGPIKYADPVKGRFTISRDNPKNTVYLQMNSLKPEDTAVYYCVADRAYWLAGEWEYWGQGTQVTVSS
B2: 8E9 VHH-Fc (Fc fusion)
chain: QVQLVESGGGLVEAGGSLRLSCVASGSSSSINAMGWYRQAPGKQRELVASISHDGETKYANSVKGRFTISRGNAKNTIYLQMNSLKPEDTAVYYCVGDVAWVVVAGEYDYWGQGTQVTVSS
B3: 15H1 VHH-Fc (Fc fusion)
chain: QVQLVESGGGLAQAGGSLRLSCASSGLIFSGSAMGWFRQAPGKEREFVGVISWNGRTTYADSVKGRFTISRDDAVNMVWLQMNNLKPEDTAVYYCAADHLNYGSGDVNPRTYDYWGQGTQVTVSS
B4: 5D7 VHH-Fc (Fc fusion)
chain: QVQLVESGGGLVQAGGSLRLSCAASGRTGSRYIMGWFRQAPGKEREFVAAINWRGDSTYYADSVKGRFTIARDNAKNTAYLQMNSLKPEDTAVYYCVADRGESYYYTRSTEYTYWGQGTQVTVSS
B5: 1A11 VHH-Fc (Fc fusion)
chain: QVQLVESGGGLVQAGGSLRLSCEVSGSIYSINSMGWYRQAPGKQRELVAGIVSDGRINYADSVKGRFTISRAKNTVYLQMNSLKPEDTAVYYCAADRAFVYAGDYDYLGQGTQVTVSS
B6: 19B8 VHH-Fc (Fc fusion)
chain: QVQLVESGGGLVQAGGSLRLSCAASGRTFTNYAMGWFRQAPGKEREFVAAISWSGGGTNYADSVKGRFTISRDNAKNTVYLQMNSPKPEDTAVYYCATTLGYYGSSSRLYEYWGQGTQVTVSS
B7: 9B2 VHH-Fc (Fc fusion)
chain: QVQLVESGGGLVQPGGSLRLSCAASGFTLDNYAIGWFRQAPGKEREGVSCISSSDGDTQYADSVKGRFTISRDNAKNTVYLQMNSLKPEDTAVYYCAVEKVYARSWFFHLCSELDFGSWGQGTQVTVSS
B8: 7A9 VHH-Fc (Fc fusion)
chain: QVQLVESGGGLVQAGGSLRLSCSASGGTASRSAMGWFRQAPGKEREFVAGISRRNSGSTYVADSYEDSVKGRFTISRDNAKNTIYLQMNSLKPEDTAVYYCAAEPTLGWYVPRRSVEYEYWGQGTQVTVSS
B9: 13C8 VHH-Fc (Fc fusion)
chain: QVQLVESGGGLVQAGGSLRLSCAASGRTVNKYMTGWFRQTPGKEREFVASIDWSSTTTHYANSVKGRFTISRDKVKNTVYLQMNGLKPEDTAVYYCAAHQDSSYGYTILPIDYDSWGQGTQVTVSS
B10: 1E4 VHH-Fc (Fc fusion)
chain: QVLLVESGGGLVQAGGLLRLACSASGRTFTENVMGWFRQAPGKEREFVAAINWNTGSTYYSDSRKGRFTISKDNAKNTMFLQINNLKPEDTAVYYCGGTSSSYYYIGEFIPDYWGQGTQVTVSS
B11: 10B8 VHH-Fc (Fc fusion)
chain: QVQLVESGGGLVQPGGSLRLSCAASGITLDYYAIAWFRQAPGKEREGVSCFCSSDGDIRYADSVKGRFTISRDNAKNTVYLQMNSLKPEDTAVYYCATERVYSSTWFFHRYSELDFGSWGRGTQVTVSS
B12: 11F8 VHH-Fc (Fc fusion)
chain: QVQLVESGGGLVQAGGSLRLSCAASGRTVGYYAVGWFRQAPGKERDFVAAISWSGRNTNYADSVTGRFTIFRDNAKNTVDLQMNSLKPEDTAVYYCAADYWNYGSGSEVPNNYDTWGQGTQVTVSS
B13: 15H7 VHH-Fc (Fc fusion)
chain: QVQLVESGGRLVQAGGSLRLSCAAPGRTFRNLTLGWFRQAPGKEREFVASTSWPDDEMTYYTDSVKGRFTISRDNAKNTVYLQMNSLKPEDTAVYYCAAASWSGRSTLSYDYDYWGQGTQVTVST
B14: 5A6 VHH-Fc (Fc fusion)
chain: QVQLVESGGGLAQAGGSLRLSCATSGLTFSMSAMGWFRQAPGNEREFVGVINWNGGSSRYADSVRGRFTISRDNAKNTVYLQMNSLKPEDTGVYYCAADALNIGTGEVNPRLYDYWGQGTQVMVSS
B15: 3D4 VHH-Fc (Fc fusion)
chain: QVQLVESGGGLVQPGGSLRLSCAASGFTLDLNSIGWFRQAPGKEREGVSCISPSGSRMHYADSVKGRFTISRDNAKNTVYLQMNSLKPEDTAVYYCATGSPSYHYCSMYGLEYDSWGQGTQVTVPS
B16: 19C10 VHH-Fc (Fc fusion)
chain: B15 chain with G55A, R57S, M58T, S100T, S115D, P125S

This note sets out measurements from patent publication US20250382355A1.

Numbering of substitutions follows the chain as printed.

The target of the assay is SARS-CoV-2 WT spike on rVSV-deltaG-Luc pseudovirus (SARS-CoV-2), P0DTC2. As to the kind of experiment: cell-based or functional assay.
On to B1, for which the pseudovirus neutralization IC50 amounted to 1.53 nM.
In the case of B2 it was 12.4 nM; in that of B3, 5.04 nM.
In the case of B4 it was 6.52 nM; in that of B5, 0.57 nM.
Under B6 stands 53.5 nM.
As for B7, the pseudovirus neutralization IC50 worked out at 1.93 nM.
Under B8 stands 110 nM.
On to B9, for which the pseudovirus neutralization IC50 was determined as 6.69 nM.
Under B10 stands 0.31 nM; under B11, 0.68 nM.
Under B12 stands 1.07 nM.
For B13, the pseudovirus neutralization IC50 was found to be 1.33 nM.
In the case of B14 it was 8.57 nM.
Under B15 stands 1.22 nM.
In the case of B16 it was 1.49 nM.
